Measured values from the nanobody polyreactivity screen of Harvey et al. (2022).

assay: yeast display, Sf9 membrane polyspecificity reagent, FACS + sequencing; frameworks hold sequencing errors
Procedure, shortened: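 Galactose-induced (36–48 hours) yeast carrying a synthetic nanobody display library were exposed to 10% biotinylated, detergent-solubilized Sf9 membrane reagent at 4 °C for 1 hour. FACS followed streptavidin microbead enrichment, using low and high (top ~1%) gates for expression (anti-HA) and reagent binding (streptavidin). Colony PCR, MiSeq 2 × 250 sequencing and CDR-length filtering followed. Labels for polyreactivity reflect the gate of origin.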

Sequence | polyreactivity (PSR sort gate)
QVQLVESGGGIVQAGGSLPLSCAASGSTYNSYAMGWYRQAPGKDRELVAGISYIGGRTYYADSVKGRFTISRDNAKNTVYLQMNSLKPEDTAVYYCAAVYWYGRRKYYSWGQGTQVTVSS | high polyreactivity
QVQLVESGGGIVQAGGSLPLSSAASGSTFPYNTMGWYIQAPGKERELVAAISQRGGSTYADSVKGRFTISRDNAKNTVYLEMNSLKPEDTAVYYCNKRNVYYSYPFDYDYWGQGTQVTVCS | low polyreactivity
QVQLVESGGGIVQAGGSLRLRCAASGSIFRFNAMGWYRQAPGKERDLVAAISSSGSSTYYADSVKGRFTISRDNSKNTVYLQMNSLKPEDTAVYYSAARNSYGNWRYYYWGQGTQVTVSS | high polyreactivity
QVQLVESGGGIVQAGGSLRLSCAASGFTCGPYAMGWYRQAPGKERELVATIRSGDSTNYADSVKGRFTISRDNAKNTVYLQMNSLKPEDTAVYYCARDARASARRKRYDYWGQGTQVTVSS | low polyreactivity
QVQLVESGGGIVQAGGSLRLSCAASGFTFGAYAMGWSRQAPGKEGELVASISWSGGSTYYADSVKGRFTISRDHAKNTVNLQMNSLKPEDTAVYYCNKDFVYPDDDGLFDYWGQGTQETVSS | low polyreactivity
QVQLVESGGGIVQAGGSLRLSCAASGFTFYRYAMGWYRQAPGKERELVAAITWSGGSTYYADSVKGRFTISRDNAKNTVYLQMNSLKPEDTAVYYCAADIYDGGFDYWGQGTQVTVSS | low polyreactivity
QVQLVESGGGIVQAGGSLRLSCAASGGTFYYYAMGWYRQAPGKERELVATISYSGASTYYADSVKGRFTISRDNAKNTVYLQMNSLKPEDTAVYYCKARPYNHRYRAWMDYWGQGTQVTVSS | high polyreactivity
QVQLVESGGGIVQAGGSLRLSCAASGIIFGYYAMGWYRQAPGKERELVAAISRRGGSTYYADSVKGRFTISRDNATITVYLQMHSLKPEDSAVSYCAAVELRLSTPDMESWVQGTQVTVSS | high polyreactivity
QVQLVESGGGIVQAGGSLRLSCAASGIIFKAYAMGWYRKAPGKERELVAAITTGSTTYADSVKGRFTISRDNAKNTVYLQMNSLKPEDTAVYYCNARFDWGWPGYEYDYCGQGTQVTVSS | low polyreactivity
QVQLVESGGGIVQAGGSLRLSCAASGIIFSWYAMGWYRQAPGKERELVAAISKGGGSTYYADSVKGRFTISRDNAKNTVYLQMNSLKPEDTAVYYCAAASSYGYGYWGQGTQVTVSS | high polyreactivity
QVQLVESGGGIVQAGGSLRLSCAASGITFEYNAIGWYRQAPGKARELVAAISQSSGSTYYADSVKGRFTISRDYAKNTVYLQMNSLKPEDTAVYYCNADTIIYEGGYWGQGTQVTVSS | low polyreactivity
QVQLVESGGGIVQAGGSLRLSCAASGLISRVYAMGWSRQAPGKEWELVAAISSGGSTNYADSVKGRFTISRDNAKNTVYLQMNSLKPEETAGYYCAARGRRTGGHYNYWGQGTQETVSS | low polyreactivity
QVQLVESGGGIVQAGGSLRLSCAASGNTFGYYAIGWYRQAPGKERELVAAINFGGDTSYADSVKGRFTISRDNAKNTVYLQMNSLKPEDTAVYYCNRVPSWRIDYDYWGQGTQVTVSS | low polyreactivity
QVQLVESGGGIVQAGGSLRLSCAASGNTFYTYAMGWYRQAPGKERELVAAITSGGRTYADSVKGRFTISRDNATNTVYLQMNSLKPEDTAVYYCAADFPGFYYVYPGDYWGQGTQVTVSS | low polyreactivity
QVQLVESGGGIVQAGGSLRLSCAASGRIFGYYVMGWSRQAPGKESELVAAINYDGGSTYYADSVKGRFTISRDNAKNTVYLQMISLKPVDTAVYYWAAAIGNSEYGWRYDYWGQGTQVTVSS | low polyreactivity
QVQLVESGGGIVQAGGSLRLSCAASGRIFIWYDMGWYRQAPGKERELVAAITQSDDITYYADSVKGRFTISLDNAKNTVYLQMNSLKPEDTAVYYCAVDKPYPYRIIIWYEYDYWGQGTQVSVSS | low polyreactivity
QVQLVESGGGIVQAGGSLRLSCAASGRIFPYYDMGWYRQAPGKERELVAAITSSGSTFYADSVKGRFTISRDNAKNTVYLQMNSLKPEDTAVYYCNTRDIRVRPYDYWGQGTQVTVSS | low polyreactivity
QVQLVESGGGIVQAGGSLRLSCAASGRIFSGNAMGWYRQAPGKERELVATISRRGGSTYYADSVKGRFTISRDNAKNTVYLLMNSLKPEDTAVYYCAVDPYAWTKWSTYNYWGQGTQVTVSS | high polyreactivity
QVQLVESGGGIVQAGGSLRLSCAASGRIFVRNAMVWYRQAPGKERELVAAISTNGGSTRYADSVKGRFTISRDNAKNTVYLQMNSLKPEDTAVYYCNAYYSHSPRYLKYDYWGLGTQVTVSS | high polyreactivity
QVQLVESGGGIVQAGGSLRLSCAASGRIFYGYTMGWYRQAPGKERELVASIDYSTGRTYYADSVKGRFTISRDNAKNTVYLLMNSLKPEDTAVYYCNADPNYSFLRYDYWGQGTQVTVSS | high polyreactivity
QVQLVESGGGIVQAGGSLRLSCAASGRIFYYYAMGWYRQAPGKESELVAAISRSGGRTYYADSVKGRFTISRDNAKNTVYLHMNSLKPEDTAVYYCNVVRQGGTLGYDYWGQGTQVTVSS | high polyreactivity
QVQLVESGGGIVQAGGSLRLSCAASGRISAYNAMGWYRQAPGKERELVAAITYDGGSTYYADSVKGRFTISRDNAKNTVYLHMNSLKPEDTAVYYCNAGADSVSFRDGGITTYDYWGQGTQVTVSS | low polyreactivity

Sequence | polyreactivity (PSR sort gate)
QVQLVESGGGIVQAGGSLRLSCAASGRNFGPYTMGWYRQAPGKERELVATISYSGSTTYYSDSVKGRFTISRDNAKNTVYLQMNSLKPEDTAVYYCNAQYYVFITFDYWGQGTKVTVSS | high polyreactivity
QVQLVESGGGIVQAGGSLRLSCAASGRNFIHYAMGGYRQAPGKERELVAAISWGGGRTYYADSEKGRFTISRDNAKNTVYLQMNSLKPEDTAVYYCAAAGRGSGYDYWGQGTQVTVSS | high polyreactivity
QVQLVESGGGIVQAGGSLRLSCAASGRTFDWYAMGWSRQAPGKERELVAAIDSIGGDTYYADSVKGRFTISRDNAKNTVYLQMNSLKPEDTAVYYCAALPWYDWEYEYWGQGTQVTVSS | high polyreactivity
QVQLVESGGGIVQAGGSLRLSCAASGRTFFHYAMGWYRQAPGKERELVAGISSGGRTKYADSVKGRFTISRDNAKNTVYLQMNSLKPEDTAVYYCAASYIVWLTRGAPRKRFDYWGQGTQVTVSS | high polyreactivity
QVQLVESGGGIVQAGGSLRLSCAASGRTFNYYAMGWYRQAPGKEREWVAAISSSGGRTYYADSVKGRFTISRDNAKNTVYLQMNSLKPEDTAVYYCAATGGGYKHWFDYWGQGTQVTVSS | low polyreactivity
QVQLVESGGGIVQAGGSLRLSCAASGRTFRKNAMAWYRQAPGKERELVAAISASGTSTNYADSVKGRFTISRDNAKNTVYLQMISLIPEDTSVYYCDARSYGIYDYWGQGTQVTVSS | high polyreactivity
QVQLVESGGGIVQAGGSLRLSCAASGRTFSIYAMGWYRQAPGKERELVASITNSDGSTYYADSVKGRFTISRDNAKNTVYLQMNSLKPEDTAVYYCNDDSGISRVKYGYWGQATQVTVSS | low polyreactivity
QVQLVESGGGIVQAGGSLRLSCAASGRTFTVYAMGWYRQARGTARELVAAINYSVGSTYYADSVKGRFTISRDNAKNTVYLQMNSLNPEDTAVYYCAADLYHFSYSNSYIRYDYWGQGTQVTVSS | low polyreactivity
QVQLVESGGGIVQAGGSLRLSCAASGRTFWRNTMGWYRQAPGKETELVAAINKPGGSTYYADSVKGRFTISRDNAKNTVYLQMNSLKPEDTAVYYCNALTYQGRHSARYDYWGQGTQVTVSS | high polyreactivity
QVQLVESGGGIVQAGGSLRLSCAASGRTFYRNAMGWYRPAPGKERELFAVISLNGGRTYYADSVKGRFTISRDNAKNTVYLQMNSLKPEDTAVYYCNKLTGPVFTRGFYYWGQGTQVTVSS | high polyreactivity
QVQLVESGGGIVQAGGSLRLSCAASGRTYPGYAMGWYRQAPGKERELVATITFSDGSTYYADSVKGRFTISRDNAKNTVYLQMNSLKPVDTAVYYCNARRSYFLRYGVNYWGQGTQVTVSS | low polyreactivity
QVQLVESGGGIVQAGGSLRLSCAASGSIFGINAMGWNRQAPGKERELVAAITSRGGRTYYADSVKGRFTISRDNAKNTVYLQMNSLKPEDTAVYYCAAATPYLIRYYYWGQGTQVTVSS | high polyreactivity
QVQLVESGGGIVQAGGSLRLSCAASGSIFGSYAMGWYRQAPGKERELVAAITRSGGRTYYADSVKGRFTISRDNAKNTVYLQMNSLKPEDTAVYYCNAKLKLPSGGDYWGQGTQVTVSS | high polyreactivity
QVQLVESGGGIVQAGGSLRLSCAASGSIFYVYAMGWYRQAPGKERELVAAIYSGASTYYADSVKGRFTISRDNAKNTVYLQMNSLKPEDTAVYYCAKRWRRRFVDVWSLYDYWGQGTQVTVSS | low polyreactivity
QVQLVESGGGIVQAGGSLRLSCAASGSIIGPNTMGWYRQAPGKERELVAAIRGGGSTNYADSVKGRFTISRDNAKNTVYLQMNSLKPEDTAVYYCNATWNLFPGVLDRYDYWGQGTQVTVSS | low polyreactivity
QVQLVESGGGIVQAGGSLRLSCAASGSIINGNAMGWDRQAPGKERELVAAITRRGGSTYYADSVKGRFTISRDNAKNTVYLQMNSLKPEDTAVYYCAAEDWLYKRPYKERIVQFYYWGQGTQVTVSS | low polyreactivity
QVQLVESGGGIVQAGGSLRLSCAASGSISAYYAMGWYRQAPGNERELVAAISWNGGRTYYADSVKGRFTISRDNAKNSVYLQMNSLKPEDTAVYYCAASPYYVVSTGGYDYDYWGQGTQVTVSS | high polyreactivity
QVQLVESGGGIVQAGGSLRLSCAASGSISSAYAMGWYRQAPGKERELVAVITSGGSTNYADSVKGRFTISRDNAKNTVYLQMNSLKQEDTAVYYCATPVASVTGYDYWGLGTQVTVSS | low polyreactivity
QVQLVESGGGIVQAGGSLRLSCAASGSTFNANGMGWYRQAPGKERELVAAISWRGSTYYADSVKGRFTISRDNAKNTVYLQMNSLKPEDTAVYYCAAYRYSWSYQYRYGYWGQGTQVTVSS | high polyreactivity
QVQLVESGGGIVQAGGSLRLSCAASGSTFRGNDMGWYRQAPGKERELVASIDWSGGSTYYADSVKGRFTISRDNAKNTVYLQMNSLKPEDTAVYYCAADTSYWYDYYIDYVGYYYWGQGTQVTVAS | high polyreactivity
QVQLVESGGGIVQAGGSLRLSCAASGSTFRGYAMGWYRQAPGKETELVAAITSRGTRTYYADSVKGRFTISRDNSKNTVSLQMNSLKPEDTAVYYCNVVSDIRLYYRYAYDYWGQGTQVTVSS | high polyreactivity
